From patent US20240165214A1, “COMPOSITIONS AND METHODS FOR STABILIZATION OF ALLOSTERIC PROTEINS” (priority 2021, published 2024) come the findings set out here.

Positions count from the first letter of the chain named. In names and notes the source's numbering stands.

The target of assay [1] is T1, FimH^wt (FimH adhesin of E. coli K12) (Escherichia coli K12, UniProt P08191 22-300).
T1 construct: also called FimH^K12; LD^A27V-PD^wt
Description: BLI; fimbriae on biotinylated RNase B on streptavidin probe; conformational change model; PBS.
Description: To test the kinetics of fimbriae binding to RNase B, streptavidin-coated biosensors (SA, FortéBio) were first allowed to bind biotinylated RNase B (applied at a concentration of 10-20 μg/ml in 0.2% BSA HBS). […] The dissociation of the fimbriae-RNase B complexes was conducted in 0.2% BSA HBS. […] The standard error that was given in the table for the kinetic parameters relates to the “fit” of the data to the model.

A further assay has as its system asialofetuin. The assay is described as follows: FmIH-dependent bacterial adhesion to asialofetuin. The assay is classed as cell-based. As to the method:
(§1) FmIH-dependent bacterial adhesion was analyzed as described previously with minor modifications (47). Briefly, Immulon 4HBX microtiter plates (Thermo Electron Corp.) were coated with 20 μg/mL of asialofetuin (Sigma-Aldrich) and plates were quenched with 0.2% BSA in PBS. Bacterial suspensions in PBS (OD540=2) were added to each well in a volume of 100 μl and plates were spun for 2 min at 750×g. After extensive washing, bound bacteria were stained with 0.1% (vol/vol) crystal violet for 20 min at room temperature and were washed several times with water. Then 100 μl of 50% (vol/vol) ethanol was added to each well, and the absorbance at a wavelength of 600 nm was measured. For inhibition, bacterial binding was tested in the presence of 1% galactose (Sigma).
as §1, with “[Kisiela D I, et al. (2015) Inhibition and Reversal of Microbial Attachment by an Antibody with Parasteric Activity against the FimH Adhesin of Uropathogenic E. coli. PLoS Pathog 11: e1004857].” for “(47).”, “(ThermoFisher Scientific)” for “(Thermo Electron Corp.)”

[2] abbreviates: full-length FmIH in type 1 fimbrial background.

B1: ribonuclease B (RNase B), bovine (enzyme, UniProt P61823 27-150, looked up)
chain: KETAAAKFERQHMDSSTSAASSSNYCNQMMKSRNLTKDRCKPVNTFVHESLADVQAVCSQKNVACKNGQTNCYQSYSTMSITDCRETGSSKYPNCAYKTTQANKHIIVACEGNPYVPVHFDASV
modifications: N-linked high-mannose (Man5) oligosaccharides; biotinylated with Sulfo-NHS-LC-Biotin
In assay [1], B1 yielded a Kd of 149 nM, a koff of 0.256 s⁻¹ and an on-rate constant (kon) of 1.1e+06 M⁻¹ s⁻¹.

B2: FmIH^FocH: wild-type FmIH lectin domain fused to the heterogeneous FocH-type pilin domain (protein)
chain: FSCNVDGGSSIGAGTTSVYVNLDPVIQPGQNLVVDLSQHISCWNDYGGWYDTDHINLVQGSAFAGSLQSYKGSLYWNNVTYPFPLTTNTNVLDIGDKTPMPLPLKLYITPVGAAGGVVIKAGEVIARIHMYKIATLGSGNPRNFTWNIISNNSVVMPTGGCDVSARDVTVTLPDYPGSVPIPLTVRCDQTQSVSYTLSGSVADAGNSIFTNTASFSPAQGVGVQLTRNGTIIPANNTVSLGAVGTSAVSLGLTANYARTGGQVTAGNVQSIIGVTFVYQ
Consider B2, for which the “bacterial binding to asialofetuin” value in the assay with asialofetuin (setting [2]) is listed as “increased binding relative to the wild-type adhesin”.

B3: V33E (protein, listed as Escherichia coli)
chain: FSCNVDGGSSIGAGTTSVYVNLDPVIQPGQNLEVDLSQHISCWNDYGGWYDTDHINLVQGSAFAGSLQSYKGSLYWNNVTYPFPLTTNTNVLDIGDKTPMPLPLKLYITPVGAAGGVVIKAGEVIARIHMYKIATLGSGNPRNFTWNIISNNSVVMPTGG
As to B3, the “bacterial binding to asialofetuin” value with asialofetuin (setting [2]) is on record as “activation of the binding phenotype”.

B4: F63E (protein, listed as Escherichia coli)
chain: B3 chain with E33V, F63E
Consider B4, for which, in the assay on asialofetuin (setting [2]), the “bacterial binding to asialofetuin” value was “activation of the binding phenotype”.

B5: L32E (protein, listed as Escherichia coli)
chain: B3 chain with L32E, E33V
For B5, the results for the “bacterial binding to asialofetuin” value in the assay on asialofetuin (setting [2]) and in the assay on asialofetuin (mutation in FmIH^FocH) were “did not increase binding” and “decreased the binding properties of FmIH^FocH”, respectively.
